B1: MYOZ1 (parent)
chain: FSDSSMDHFQKFLPTVGGQLGTAG

Variants of: B1
Assay: protein stability index of a GFP-peptide fusion (GPS, HEK-293T) (PSI 1-6); higher = more stable
Details: c terminus: a fixed tail appended
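Note: lentivirally expressed fusions sorted by FACS into six bins by GFP to DsRed ratio, PSI derived from sequencing read proportions per bin multiplied by bin number.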

Protein stability index of substitutions, site by site:
K11: Q 2.66, A 1.79, S 2.37, I 2.12, T 2.45, R 2.12, Y 2.15, F 2.07, H 2.38, N 2.56, E 3.51, P 2.46, D 3.32, L 1.67, G 3.21, C 1.8, M 1.34, W 1.02
M6: D 3.22, C 1.96, K 3.08, R 2.66, V 2.23, P 2.56, E 3, N 2.78, A 2.65, H 2.25, W 1.44, Q 3, F 3.55, S 2.26, Y 2.32, G 2.86, I 2.04, T 2.58, L 2.29
H8: V 1.76, K 2.15, W 2.22, E 2.34, I 2.21, S 1.53, Q 2.58, D 2.49, G 2.07, Y 2.08, L 1.35, R 1.61, C 1.72, F 1.38, A 1.84, P 2.36, T 2.51, N 2.48
F12: M 3.11, W 1.85, P 3.61, A 3.98, S 3.67, Q 3.04, Y 2.77, I 2.08, C 2.92, N 3.68, E 4.6, R 3.5, L 2.88, H 3.28, K 3.67, T 3.16, G 3.15, D 4.08
S5: L 3.12, M 1.82, Q 2.19, N 3.11, K 2.07, E 2.91, W 2.38, G 1.88, A 3.02, F 2.22, H 2.25, P 2.08, C 2.19, D 2.58, R 1.05, T 2.98
Q10: F 2.3, D 3.15, I 2.91, M 2.02, N 2.42, Y 1.47, K 2.14, G 2.57, A 2.33, T 2.15, L 1.3, R 1.13, H 2.31, C 2.06, V 1.77, E 1.95, S 2.07, P 3.23
L13: C 2.75, P 3.06, E 4.42, F 3.09, D 3.44, G 3.44, A 2.52, M 3.29, H 3.29, K 3.53, I 1.9, N 3.1, Q 3.18
F9: Y 2.78, T 2.48, C 2.92, D 4.52, P 4.38, Q 3.88, W 1.89, H 2.57, R 2.6, E 4.4, K 3.09, L 2.16, V 3.71, A 2.71, N 3.84, S 3.61, I 2.46, G 4.56, M 3.37
D7: C 1.9, T 2.15, A 1.38, M 1.38, I 2.3, V 2.15, K 1.8, E 2.02, R 2.6, H 1.82, P 2.38, Q 2.02, S 2.56, G 1.44, L 1.55
S4: Q 1.92, H 2.35, K 2.12, I 3.59, R 2.51, P 2.42, M 1.79, W 2.89, V 3.14, G 2.15, N 2.32, T 2.65, Y 1.61

From the supplement of paper PMC10567573
